Target: improved light‐induced dimerizing protein (iLID) (Avena sativa | Escherichia coli)
Assay: recruitment to the GUV membrane, fluorescence microscopy; 450 nM iLID (His tag on DGS–NTA (Ni) lipids, inner membrane) and 100 nM SspB–mCherry encapsulated in POPC GUVs with 5% DGS–NTA (Ni); external blue light for 15 min

B1: SspB Nano–mCherry (stringent starvation protein B, Nano, fused to mCherry), P0AFZ3 1-165 (natural protein)
chain: SSPKRPKLLREYYDWLVDNSFTPYLVVDATYLGVNVPVEYVKDGQIVLNLSASATGNLQLTNDFIQFNARFKGVSRELYIPMGAALAIYARENGDGVMFEPEEIYDELNI
modifications: not checked
ratio of mCherry intensity at the GUV membrane to luminal intensity: 3 fold
